These results are taken from patent publication US6323185, “Anti-viral guanosine-rich oligonucleotides and method of treating HIV” (The United States of America as represented by the …).

The target in data set [1] is T1, HIV-1 integrase wild-type (IN1-288) (HIV-1, UniProt P12497 P12497:1148-1435). Put plainly: inhibition; 3'-processing; strand transfer 0.023 uM. The following applies: G4.
Data set [2] addresses T1, HIV-1 integrase wild-type (IN1-288). Put plainly: inhibition; first activity column (headed strand transfer, order matches 3'-processing in Table D-1); other column 0.600. The following applies: G4.
For data set [3] the target is unchanged. Kind of data set: inhibition; first activity column (headed strand transfer); other column 0.156. The following applies: G4.
Data set [4] shares this target. Kind of data set: inhibition; first activity column (headed strand transfer); other column 0.062. The note with it: G4.
Data set [5] has the same target. Put plainly: inhibition; first activity column (headed strand transfer); other column 0.055. The following applies: G4.
Data set [6] shares this target. Kind of data set: inhibition; 3'-processing; strand transfer 0.123 uM. The note with it: one tetrad disrupted.
Data set [7] has the same target. Kind of data set: inhibition; first activity column (headed strand transfer); other column 0.050.
Data set [8] has the same target. Put plainly: inhibition; first activity column (headed strand transfer, order matches 3'-processing elsewhere); other column 0.750; Table B-7 gives >0.5 for both. The note with it: G4.
The target is the same in data set [9]. Kind of data set: inhibition; first activity column (headed strand transfer); other column 0.013.
Data set [10] shares this target. Kind of data set: inhibition; first activity column (headed strand transfer); other column 0.134. The note with it: G4.
Data set [11] has the same target. Kind of data set: inhibition; first activity column (headed strand transfer); other column 0.030. The note with it: G4.
Data set [12] has the same target. Kind of data set: inhibition; first activity column (headed strand transfer); other column 0.500. The note with it: G4.
Data set [13] shares this target. Kind of data set: inhibition; first activity column (headed strand transfer); other column 0.120. The note with it: G4.
For data set [14] the target is unchanged. Put plainly: inhibition; 3'-processing (+/-17); strand transfer 24 nM; Table C-2 0.060/0.020 uM. The following applies: intramolecular G4.
For data set [15] the target is unchanged. Kind of data set: inhibition; 3'-processing; strand transfer 620 nM. The note with it: G4.
For data set [16] the target is unchanged. Put plainly: inhibition; first activity column (headed strand transfer); other column 0.016. The following applies: G4, loop 3 inverted.
For data set [17] the target is unchanged. Kind of data set: inhibition; first activity column (headed strand transfer); other column 0.040. The following applies: G4.
For data set [18] the target is unchanged. Put plainly: inhibition; 3'-processing; strand transfer 0.125 uM. The following applies: G4.
The target of data set [19] is CD4 (UniProt P01730 P01730:26-396). Put plainly: competition; ID50, oligo with immobilized CD4. The following applies: tags: immobilized, gp120 capture ELISA kit. (In general: In an ELISA, binding on a coated surface is turned into a signal by an enzyme label.)
Data set [20] addresses T2, gp120 envelope glycoprotein (HIV-1, UniProt P04578 P04578:33-511). Kind of data set: competition; ID50, gp120/CD4 ELISA, preincubated with gp120. The following applies: tags: gp120 capture ELISA kit.
Data set [21] has as its target T1, HIV-1 integrase wild-type (IN1-288). Kind of data set: inhibition; first activity column (headed strand transfer); other column 0.070. The note with it: G4.
Data set [22] shares this target. Kind of data set: inhibition; first activity column (headed strand transfer); other column 0.610; Table C-2 prints 3' end ggg. The note with it: G4.
The target of data set [23] is T2, gp120 envelope glycoprotein. Kind of data set: competition; ID50, gp120/CD4 ELISA. The note with it: tags: gp120 capture ELISA kit.
The target in data set [24] is T1, HIV-1 integrase wild-type (IN1-288). Kind of data set: inhibition; first activity column (headed strand transfer); other column 0.095. The note with it: G4.
Data set [25] has the same target. Kind of data set: inhibition; 3'-processing (+/-26); strand transfer 134 nM. The note with it: G4.
Data set [26] has the same target. Put plainly: inhibition; first activity column (headed strand transfer); other column 0.084. The following applies: G4.
For data set [27] the target is unchanged. Put plainly: inhibition; 3'-processing; strand transfer 0.070 uM. The note with it: G4.
The target is the same in data set [28]. Put plainly: inhibition; first activity column (headed strand transfer); other column 0.060. The following applies: G4.

For orientation: IC50 means the concentration that inhibits the measured activity by half. Read a high IC50 as lower potency. GGTTGGTGTGGTTGG (ssDNA, all PS (Table B-7; Table C-1 lists it as pPT)) [T30341 thrombin-binding aptamer PT] displayed a 50% inhibitory concentration (IC50) in data set [1] of 42 nM. In other words, the double-digit nanomolar range.

The molecule GTGGTTGGTGTGGTTGG (ssDNA, PS at first and last linkages) [T30673] registered an IC50 in data set [2] of 790 nM.

For GTGGTTGGTGGGTGGGT (ssDNA, PS at first and last linkages) [T30679], in data set [3], inhibition was half-maximal at 159 nM (IC50).

GGGGTGGTGGGTGGGT (ssDNA, PS at first and last linkages, capital T = C5-propynyl dU) [T30720]: in data set [4], the half-inhibitory concentration (IC50) was 59 nM.

B1: T30577 (ssDNA)
DNA: GTGGTGGGTGGGTGGGT
modifications: PS at first and last linkages, 5-iodo-dU at position 9 [n positions 9 = modified dU]
In [5], B1 came in with an IC50 of 65 nM.

Molecule GTGATGGGTGGGTGGGT (ssDNA, PS at first and last linkages) [T30526] displayed an IC50 in data set [6] of 200 nM.

B2: T30578 (ssDNA)
DNA: GTGGTGGGTGGGTGGGT
modifications: PS at first and last linkages, 5-iodo-dU at position 13 [n positions 13 = modified dU]
In data set [7] (G4), B2 showed an IC50 of 60 nM.

Take GGTTGGTGTGGTTGG (ssDNA, PS at first and last linkages (Table B-7; Table C-1 lists it as PT)) [T30659 thrombin-binding aptamer pPT]: inhibition in data set [8] was half-maximal at 870 nM (IC50).

In data set [7] (G4, loops 1 and 3 inverted), GTGGGTGGTGGGGTGGT (ssDNA, PS at first and last linkages) [T30699] came in with an IC50 of 136 nM.

In data set [9] (G4, loop 2 inverted), GTGGTGGGGTGGTGGGT (ssDNA, PS at first and last linkages) [T30697] had a concentration for half-maximal inhibition (IC50) of 130 nM.

Turning to GTGGGTGGTGGGTGGGT (ssDNA, PS at first and last linkages, capital T = C5-propynyl dU) [T30722], the IC50 in [10] turned out to be 129 nM.

For GTGGTGGGTGGGTGGGT (ssDNA, PS at first and last linkages, capital T = C5-propynyl dU) [T30702], the IC50 in data set [11] was determined as 32 nM.

GTGGTGGGTGTGGTTGGT (ssDNA, PS at first and last linkages) [T30675] showed an IC50 in [12] of 485 nM. This lies in the sub-micromolar range.

With GTGGGTGGTGGGTGGGT (ssDNA, PS at first and last linkages) [T30696], in [9] (G4, loop 1 inverted), the half-inhibitory concentration (IC50) was determined as 122 nM.

With GTGGTGGGTGGGTTGGT (ssDNA, PS at first and last linkages) [T30678], the half-maximal inhibitory concentration (IC50) in data set [13] is 98 nM.

GGGTGGGTGGGTGGGT (ssDNA, PS at first and last linkages) [T30695] showed an IC50 in data set [14] of 43 nM.

B3: T30576 (ssDNA)
DNA: GTGGTGGGTGGGTGGGT
modifications: PS at first and last linkages, 5-iodo-dU at position 5 [n positions 5 = modified dU]
In data set [7] (G4), B3 came in with a half-inhibitory concentration (IC50) of 65 nM. This lies in the double-digit nanomolar range.

For GTGGTTGGTGGGTTGGT (ssDNA, PS at first and last linkages) [T30677], in data set [15], the half-inhibitory concentration (IC50) worked out at 725 nM.

B4: T30579 (ssDNA)
DNA: GTGGTGGGTGGGTGGGT
modifications: PS at first and last linkages, 5-iodo-dU at positions 5, 9, 13 [n positions 5,9,13 = modified dU]
B4 had a concentration for half-maximal inhibition (IC50) in data set [5] of 60 nM. This counts as double-digit nanomolar.

Turning to GTGGTGGGTGGGGTGGT (ssDNA, PS at first and last linkages) [T30698], the IC50 in [16] stood at 150 nM. This lies in the sub-micromolar range.

As to GTGGTGGGTGGGTGGGT (ssDNA, PS at first and last linkages, capital T = C5-propynyl dU) [T30700], in data set [17], the IC50 is 82 nM.

The molecule GTGGTGGGTGGGTGGGT (ssDNA, all phosphodiester) [T30175] showed an IC50 in [18] of 170 nM.

On to GTGGTGGGTGGGTGGGTGGTGGGTGGTGGTTGTGGGTGGGTGGTG (ssDNA, all PS) [I100-21], for which the results for the IC50 in data set [19] and in data set [20] were 48 nM and 70 nM, respectively.

As for GTGGTGGGTGGGTGGGT (ssDNA, PS at first and last linkages, capital T = C5-propynyl dU) [T30701], half-maximal inhibition in data set [11] (IC50) required 72 nM.

B5: T30570 (ssDNA)
DNA: GTGGTGGGTGGGTGGGT
modifications: PS at first and last linkages, 5-bromo-dU at position 13 [n positions 13 = modified dU]
On to B5, for which the concentration for half-maximal inhibition (IC50) in data set [21] is 90 nM.

Regarding GTGGTTGGTGTGGTTGGT (ssDNA, PS at first and last linkages) [T30674], the half-inhibitory concentration (IC50) in data set [22] was determined as 760 nM.

As for GATCCATGTCAGTGACAC (ssDNA, phosphodiester, amine) [1231 random], the IC50 in [19] is greater than 50000 nM; in data set [23], greater than 100000 nM.

The molecule GTGGTGGGTGGGTGGGT (ssDNA, 3'-cholesterol via triglycyl linker) [T30075] displayed an IC50 in data set [24] of 110 nM.

As for GGGTGGGTGGGTGGGTGG (ssDNA, all PS) [1174], the IC50 in data set [23] worked out at 90 nM.

On to GTGGTGGGTGTGGTGGGT (ssDNA, PS at first and last linkages) [T30676], for which the concentration for half-maximal inhibition (IC50) in data set [25] worked out at 148 nM.

With GTTGGGGGTTGTTGGTGGGGTGGTGG (ssDNA, all PS) [I100-12], the figures for the IC50 in [19] and in [20] were 475 nM and 80 nM, respectively.

B6: T30571 (ssDNA)
DNA: GTGGTGGGTGGGTGGGT
modifications: PS at first and last linkages, 5-bromo-dU at positions 5, 9, 13 [n positions 5,9,13 = modified dU]
The molecule B6 showed an IC50 in data set [7] (G4) of 55 nM.

Regarding GGGTGGGTGGGTGGGT (ssDNA, PS at first and last linkages, capital T = C5-propynyl dU) [T30719], in data set [5], it took 55 nM to reach half-maximal inhibition (IC50).

With GUGGUGGGUGGGUGGGU (ssRNA, PS at first and last linkages, RNA sugars) [T30661], inhibition in data set [26] was half-maximal at 111 nM (IC50).

In data set [27], GTGGTGGGTGGGTGGGT (ssDNA, all PS) [T30038] yielded an IC50 of 90 nM. That is a double-digit nanomolar value.

On to GATCCATGTCAGTGACAC (ssDNA, all PS) [1232 random PT], for which the 50% inhibitory concentration (IC50) in [19] and in [23] was greater than 10000 nM throughout.

In data set [28], GTGGTGGGCGGGTGGGT (ssDNA, PS at first and last linkages) [T30744] yielded an IC50 of 105 nM.
